In PMC12024694, “RNA Binding to CCRRM of PABPN1 Induces Conformation Change”:

What was measured:
[1] = target: T1, PABPN1 CCRRM fragment (coiled coil + RRM) (UniProt Q86U42 114-254); assay: BLI; kon 4.24e-5 (so in the source), koff 2.031e-3 s-1; text ranks A18 intermediate, inconsistent with values; EMSA and SHAPE: 10 mM Tris-HCl pH 8.0, 25 mM KCl, 10 mM NaCl, 1 mM MgCl2, 10% glycerol, 0.5 mM DTT, 25 C, 20 min (1M7 step at 35 C); BLI: room temperature, 0.5; details: protein: recombinant; tags: Trx and His (Ni-NTA) fusion, pET-MG vector; label: 5' biotin
T1 sequence: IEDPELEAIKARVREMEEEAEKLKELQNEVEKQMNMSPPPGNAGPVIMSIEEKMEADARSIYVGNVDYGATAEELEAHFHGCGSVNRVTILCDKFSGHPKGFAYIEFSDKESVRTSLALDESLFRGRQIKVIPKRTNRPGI

[2] = target: T1, PABPN1 CCRRM fragment (coiled coil + …); assay: EMSA; 50 uM RNA; protein:RNA ratio 0 to 5; EMSA and SHAPE: 10 mM Tris-HCl pH 8.0, 25 mM KCl, 10 mM NaCl, 1 mM MgCl2, 10% glycerol, 0.5 mM DTT, 25 C, 20 min (1M7 step at 35 C); BLI: room temperature, 0.5; details: protein: recombinant; tags: Trx and His (Ni-NTA) fusion, pET-MG vector
[3] = target: T1, PABPN1 CCRRM fragment (coiled coil + …); assay: BLI; kon 3.589e-5 (so in the source), koff 1.34e-3 s-1; room temperature; EMSA and SHAPE: 10 mM Tris-HCl pH 8.0, 25 mM KCl, 10 mM NaCl, 1 mM MgCl2, 10% glycerol, 0.5 mM DTT, 25 C, 20 min (1M7 step at 35 C); BLI: room temperature, 0.5; details: protein: recombinant; tags: Trx and His (Ni-NTA) fusion, pET-MG vector; label: 5' biotin
[4] = target: T1, PABPN1 CCRRM fragment (coiled coil + …); assay: SHAPE footprinting (1M7); A-rich protected, CU-rich partly protected; CA-rich and GU-rich stable, AU-rich more reactive; text elsewhere calls GU-rich moderate affinity; EMSA and SHAPE: 10 mM Tris-HCl pH 8.0, 25 mM KCl, 10 mM NaCl, 1 mM MgCl2, 10% glycerol, 0.5 mM DTT, 25 C, 20 min (1M7 step at 35 C); BLI: room temperature, 0.5; details: protein: recombinant; tags: Trx and His (Ni-NTA) fusion, pET-MG vector
[5] = target: T1, PABPN1 CCRRM fragment (coiled coil + …); assay: EMSA; 40 uM RNA; protein:RNA ratio 0 to 10; EMSA and SHAPE: 10 mM Tris-HCl pH 8.0, 25 mM KCl, 10 mM NaCl, 1 mM MgCl2, 10% glycerol, 0.5 mM DTT, 25 C, 20 min (1M7 step at 35 C); BLI: room temperature, 0.5; details: protein: recombinant; tags: Trx and His (Ni-NTA) fusion, pET-MG vector
[6] = target: T1, PABPN1 CCRRM fragment (coiled coil + …); assay: BLI; kon 4.1e-5 (so in the source), koff 1.71e-3 s-1; text ranks A12 lowest affinity, inconsistent with values; EMSA and SHAPE: 10 mM Tris-HCl pH 8.0, 25 mM KCl, 10 mM NaCl, 1 mM MgCl2, 10% glycerol, 0.5 mM DTT, 25 C, 20 min (1M7 step at 35 C); BLI: room temperature, 0.5; details: protein: recombinant; tags: Trx and His (Ni-NTA) fusion, pET-MG vector; label: 5' biotin

## AAAAAAAAAAAAAAAAAA (ssRNA) [A18]
[1]
  Kd: 4.79 nM

B1: A-rich RNA (ssRNA)
RNA: UAAUACGACUCACUAUAGGGUGGUCAGUCGAGUGGAAAAAAAAAAAAAAAAAAGGGCGGCAUGGUCCCAGCCUCCU
[2]
  binding result: binds

## AAAAAA (ssRNA) [A6]
[3]
  Kd: 3.38 nM

B2: RE_A-rich RNA (structured_RNA)
RNA: CCUUCGGGCCAAAUUUAUUUAUUUAUUUAUUUAGCUGACGAUAAAAAAAAAAAAAAAAAACCACACACACAGGAAUCGACUCUGUUUGUUUGUGUUUGUUUGUACUGAAUUGGCACUUUUCCCCUUUUCCCUUUCUGGACUGGCAUCGAUCCGGUUCGCCGGAUCCAAAUCGGGCUUCGGUCCGGUUC
[4]
  binding result: binds

B3: U-rich RNA (ssRNA)
RNA: UAAUACGACUCACUAUAGGGUGGUCAGUCGAGUGGUUUUUUUUUUUUUUUUUUGGGCGGCAUGGUCCCAGCCUCCU
[5]
  binding result: no binding

## AAAAAAAAAAAA (ssRNA) [A12]
[6]
  Kd: 4.17 nM
